Results reported in patent US20260085127A1 (BRIGHTPATH BIOTHERAPEUTICS, published 2026).
Numbering of substitutions follows the chain as printed. Values belong to the binder of their own block, whether it stands above or below them.

What was measured:
[1] = target: T1, human CD39 (Accession No. NM_001776.6) expressed on cells (human, UniProt P49961 1-510); assay: flow cytometry, 293T/CD39 cells, KD from MFI
T1 construct: whole, on cells; On Jurkat, 293T or SK-MEL28 cells; also called Jurkat/CD39; 293T/CD39
T1 sequence (looked up): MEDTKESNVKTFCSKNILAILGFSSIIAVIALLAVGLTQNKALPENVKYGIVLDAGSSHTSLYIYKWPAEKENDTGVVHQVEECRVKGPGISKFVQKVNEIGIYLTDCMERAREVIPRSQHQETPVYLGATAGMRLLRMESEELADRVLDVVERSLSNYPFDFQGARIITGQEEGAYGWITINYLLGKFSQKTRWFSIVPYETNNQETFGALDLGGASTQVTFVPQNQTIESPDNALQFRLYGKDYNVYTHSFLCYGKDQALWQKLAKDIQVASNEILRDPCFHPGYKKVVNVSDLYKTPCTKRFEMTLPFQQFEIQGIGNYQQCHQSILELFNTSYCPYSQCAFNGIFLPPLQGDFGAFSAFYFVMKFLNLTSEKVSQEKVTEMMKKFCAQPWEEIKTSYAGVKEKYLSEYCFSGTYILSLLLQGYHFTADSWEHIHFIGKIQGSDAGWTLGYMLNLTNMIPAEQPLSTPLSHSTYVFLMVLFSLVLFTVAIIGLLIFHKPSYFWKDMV
Description: (§1) The stained cells were suspended in staining buffer and analyzed by flow cytometer.

[2] = target: T1, human CD39 (Accession No. NM_001776.6) …; assay: flow cytometry, 293T/TIM-3 + CD39 cells, KD from MFI
Description: as §1

B1: T86_LA (antibody, V domains shown)
VH: QIQLVQSGPELKKPGETVKISCEASGYTFINYGMNWVKQAPGKGLKWMGWINTYTGEPTYADDFKGRFAFSLETSANTAYLQINNLKNEDTATYFCARKGYYGYPNYYAMDYWGQGTSVTVSS
VL: DIVMTQSQKFMSTSVGDRVSITCKASQNVGTAVAWYQQKPGQSPKLLIYSASNRYTGVPDRFTGSGSGTDFTLTISNMQSEDLADYFCQQYSSYPITFGTGTKLEIK
notes: also called IgG1-LALA antibody of anti-CD39 antibody T86
Kd [1]: 2.67 nM
Kd [2]: 5.09 nM

B2: I67_LA (antibody, V domains shown)
VH: DVQLQESGPSLVQPSQSLSINCTVSGFSLSSYGVHWVRQSPGKGLEWLGVIWRRGSTDYNAAFMSRLSITKDNSKSQVFFKMNRLQADDTATYYCAKGISTATSWFAYWGQGTLVTVSA
VL: DIVMTQSHKFMSTSVGDRVSVTCKASQNVGTNVAWYQQKPGQSPKALIYSASYRYSGVPDRFTGSGSGTDFTLTISNVQSEDLAEYFCQQYNSYPLTFGAGTKLELK
notes: also called IgG1-LALA antibody of anti-CD39 antibody I67
Kd [1]: 1.73 nM
Kd [2]: 4.19 nM

Next, values leading:

Kd [1]: 2.44 nM
Kd [2]: 4.79 nM
B3: Tre291_LA (antibody, V domains shown)
VH: QVQLKQSGPGLVQPSQSLSITCTVSGFSLTSYGVHWVRQSPGKGLEWLGVIWRRGSTDYNAAFMSRLSITKDTSKSQVFFKMNSLQTDDTAIYYCAGVRGDAMDYWGQGTSVTVSS
VL: B2 VL with F10S, A100G, L106I

Kd [1]: 1.8 nM
Kd [2]: 3.66 nM
B4: mAnE67_LA (antibody, V domains shown)
VH: EVQLVESGGGLVKPGGSRKLSCAASGFTFSDYGMHWVRQAPEKGLEWVAYISSGSSIIYYADTVKGRFTISRDNAKNTLFLQMTGLRSEDTAMYYCARKDYPYAMDYWGQGTSLAVSS
VL: SIVMTQTPKFMSTSVGDRVSVTCKASQNVGTNVAWYQQKPGQSPKALIYWASNRFTGVPDRFTGSGSGTDFTLTISNVQSEDLADYFCQQYSSSPYTFGSGTKLEIK
notes: also called IgG1-LALA antibody of anti-CD39 antibody mAnE67
